In patent US20020127645A1:

Biological target: dimeric mouse-human chimeric IgA1 specific for the hapten dansyl (human) (UniProt P01876)
Test: densitometry of secreted proteins after immunoprecipitation and SDS-PAGE

Sequence of UniProt P01876 (P01876 other isoform, or with tags, fused parts or gaps mutant, chain 1 of 2, other chains not shown): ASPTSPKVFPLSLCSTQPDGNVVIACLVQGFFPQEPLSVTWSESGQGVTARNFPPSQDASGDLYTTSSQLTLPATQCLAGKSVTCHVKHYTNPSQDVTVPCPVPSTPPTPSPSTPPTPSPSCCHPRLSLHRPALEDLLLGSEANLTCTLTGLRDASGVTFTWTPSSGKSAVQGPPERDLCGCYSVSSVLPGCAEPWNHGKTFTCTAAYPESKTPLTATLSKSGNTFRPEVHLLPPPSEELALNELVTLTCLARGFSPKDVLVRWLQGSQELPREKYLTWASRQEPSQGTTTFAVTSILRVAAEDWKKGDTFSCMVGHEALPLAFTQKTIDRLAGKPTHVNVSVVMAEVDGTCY

- α chains per molecule of SC (stoichiometry) (α chains per SC): 4
Substance: human secretory component (SC), ectoplasmic domain of the human polymeric Ig receptor (pIgR) ending at Glu589 (from UniProt P01833 19-607)
